The record followed here is patent US20250099579A1 (MARENGO THERAPEUTICS, published 2025).

One assay has as its target T1, cynomolgus Vβ6 TCR (cynomolgus).
T1 construct: also called Cyno TCRVβ
Kind of assay: SPR (Biacore T200), BKM0186 captured via anti-human Fc on CM5 chip (80 RU), TCR as analyte, multi cycle kinetics, 1:1 Langmuir model, 25 C. On the procedure:
(§1) All interactions between bispecifics and relevant receptors were analyzed by Surface Plasmon Resonance (SPR) on a Biacore T200 instrument.
(§2) BKM0186 at 2 μg/mL was immobilized on a Series S CM5 chip via human Fe antibody to 80 RU. Human Vβ6 TCR and cynomolgus Vβ6 TCR were diluted to 250 nM and then serially diluted two-fold in 1×HBS-EP+ buffer for a total of 10 concentrations. Multi cycle kinetics was done with an association time of 120 seconds and a dissociation time of 600 seconds, for human Vβ6 TCR and 300 seconds for cynomolgus Vβ6 TCR at 30 uL/min. This assay was run in 1×HBS-EP+ Buffer pH 7.4 at 25 C. Sensorgrams were corrected by reference subtraction using the reference flow cell not treated with BKM0186. BIAevaluation software was used for data analysis and the data were fit using a 1:1 Langmuir binding model for calculation of the KD value (Koff/Kₒₙ).
(In general: SPR reads the build-up and loss of mass on a sensor chip optically.)

In another assay the target is T2, Human Vβ6 TCR (human).
T2 construct: The method text calls it Human Vβ6 TCR; also called Human TCRVβ
The description is as above. Here is the method: as §1, §2

Another assay deals with T3, cynomolgus IL2Ra (cynomolgus, UniProt H6WS54 22-213).
T3 construct: also called Cyno IL-2Rα
T3 sequence: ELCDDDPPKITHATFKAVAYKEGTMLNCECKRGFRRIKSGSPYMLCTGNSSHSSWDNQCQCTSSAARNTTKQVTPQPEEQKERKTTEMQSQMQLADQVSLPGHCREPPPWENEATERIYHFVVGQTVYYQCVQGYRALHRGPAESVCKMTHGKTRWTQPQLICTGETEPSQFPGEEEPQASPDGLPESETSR
As to the kind of experiment: SPR (Biacore T200), BKM0186 captured via anti-human Fc on CM5 chip, receptor as analyte, steady state model. Here is the method: as §1
(§3) BKM0186 at 2 μg/mL was immobilized on a Series S CM5 chip via human Fe antibody to 80 RU. Human IL2Ra and cynomolgus IL2Ra were diluted to 500 nM, human IL2R beta-gamma and cynomolgus IL2R beta-gamma were diluted to 125 nM, and human IL2R trimeric complex was diluted to 50 nM and then serially diluted two-fold in 1×HBS-EP+ buffer for a total of 10 concentrations. Multi cycle kinetics was run where the chip is regenerated with 3 M Magnesium Chloride between each cycle followed by a new injection of BKM0186. An association time of 120 seconds and a dissociation time of 150 seconds for human and cyno IL2Ra, 300 seconds for human and cyno IL2R beta-gamma, and 900 seconds for the human IL2R trimeric complex was done at 30 uL/min. This assay was run in 1×HBS-EP+ Buffer pH 7.4 and 25 C. Sensorgrams were corrected by double reference subtraction using the reference flow cell not treated with BKM0186 and a blank cycle of buffer alone. BIAevaluation software was used for data analysis and the data were fit using a 1:1 Langmuir binding model for calculation of the KD value (Koff/Kon). Due to faster off rates observed for human and cyno IL2Ra binding, the data were fit using a steady state model where equilibrium binding response is analyzed.

A further assay deals with T4, Human IL2Ra (human, UniProt P01589 22-213, limits assumed).
T4 construct: also called Human IL-2Rα; CD25
T4 sequence (looked up): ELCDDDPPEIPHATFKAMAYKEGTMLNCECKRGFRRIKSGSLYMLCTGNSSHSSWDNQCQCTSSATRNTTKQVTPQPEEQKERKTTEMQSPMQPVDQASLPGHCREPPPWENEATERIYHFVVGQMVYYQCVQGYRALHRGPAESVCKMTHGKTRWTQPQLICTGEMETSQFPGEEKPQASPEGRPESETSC
The description is as above. On the procedure: as §1, §3

The target of assay [1] is Vβ6 TCR on human T cells (human). Kind of assay: cell-based or functional assay.
Assay [2] deals with T5, cynomolgus IL2R beta-gamma (cynomolgus).
T5 construct: also called Cyno IL-2Rβγ
As to the kind of experiment: SPR (Biacore T200), BKM0186 captured via anti-human Fc on CM5 chip, receptor as analyte, 1:1 Langmuir model. Here is the method: as §1, §3

The next assay addresses T6, human IL2R beta-gamma (human, UniProt P14784 27-239; P31785 23-262).
T6 construct: Soluble heterodimer used as analyte; also called Human IL-2Rβγ; IL-2Rβγ heterodimer
T6 sequence (looked up) 1: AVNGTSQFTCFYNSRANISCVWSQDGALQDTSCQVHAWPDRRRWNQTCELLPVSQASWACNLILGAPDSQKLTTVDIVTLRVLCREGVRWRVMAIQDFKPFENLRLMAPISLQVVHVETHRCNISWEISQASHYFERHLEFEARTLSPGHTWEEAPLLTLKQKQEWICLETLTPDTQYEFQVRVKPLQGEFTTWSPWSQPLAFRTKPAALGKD
T6 sequence (looked up) 2: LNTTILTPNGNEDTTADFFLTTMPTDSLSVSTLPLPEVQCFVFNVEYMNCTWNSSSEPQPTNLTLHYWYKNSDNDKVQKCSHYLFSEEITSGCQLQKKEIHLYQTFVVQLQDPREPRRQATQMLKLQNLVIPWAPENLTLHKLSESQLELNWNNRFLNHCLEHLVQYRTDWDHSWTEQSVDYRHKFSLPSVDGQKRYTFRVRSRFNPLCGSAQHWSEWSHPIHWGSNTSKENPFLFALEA
The description is as above. On the procedure: as §1, §3

Assay [3] has as its target T7, Vβ6 TCR on human T cells (human).
T7 construct: whole, on cells; Polyclonal T cells: CDR3 and the paired alpha chains vary; also called Vβ6 T cells; TCRVβ6-5
Kind of assay: flow cytometry on sorted, activated TCRVβ6-5 positive CD25 hi human T cells (cells carry both Vβ6 TCR and CD25; co-operative binding). An excerpt:
Pan T-cells were isolated from PBMC's via negative selection on the autoMACS. T-cells were stained for TCRVβ6-5 and sorted on the Sony SH800 cell sorter into cell culture media. Sorted TCRVβ6-5 T-cells and non-sorted pan T-cells were activated and expanded using anti-CD3/CD28 beads followed by IL-2 culture. Portion of activated T-cells were allowed to rest for 3-days in serum-free media. Anti-CD25 FACS staining to confirm CD25 upregulation (from activation) and downmodulation (from resting). T-cells that represents TCRVβ6-5(pos) CD25(hi); TCRVβ6-5(pos) CD25(low); TCRVβ6-5(neg) CD25(hi); TCRVβ6-5(neg) CD25(low) are checked for BKM0186 construct binding.
This avidity effect confirms that BKM0186 engages both Vβ6 and IL-2R via a cis binding mode.
Background: In flow cytometry, cells or beads pass a laser one at a time.

The target of assay [4] is T8, human IL2R trimeric complex (human, UniProt P01589 22-213; P14784 27-239; P31785 23-262).
T8 construct: also called Human IL-2Rαβγ
T8 sequence (looked up) 1: T4 sequence (looked up)
T8 sequence (looked up) 2: T6 sequence (looked up) 1
T8 sequence (looked up) 3: T6 sequence (looked up) 2
Kind of assay: SPR (Biacore T200), BKM0186 captured via anti-human Fc on CM5 chip, receptor complex as analyte, 1:1 Langmuir model. On the procedure:
as §1, §3

T7 sequence (A0A0K0K1A5 22-114): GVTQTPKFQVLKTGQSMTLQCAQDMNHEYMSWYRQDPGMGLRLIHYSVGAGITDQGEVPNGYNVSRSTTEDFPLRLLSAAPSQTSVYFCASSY

B1: BKM0186 (bispecific antibody, human IgG1, kappa, N297A)
heavy: QVQLVQSGAEVKKPGSSVKVSCKASGHDFRLTYIHWVRQAPGQGLEWMGRVSAGSGNVKYNEKFKGRVTITADTSTSTAYMELSSLRSEDTAVYYCAVSYYSYDVLDYWGQGTTVTVSSASTKGPSVFPLAPSSKSTSGGTAALGCLVKDYFPEPVTVSWNSGALTSGVHTFPAVLQSSGLYSLSSVVTVPSSSLGTQTYICNVNHKPSNTKVDKRVEPKSCDKTHTCPPCPAPELLGGPSVFLFPPKPKDTLMISRTPEVTCVVVDVSHEDPEVKFNWYVDGVEVHNAKTKPREEQYASTYRVVSVLTVLHQDWLNGKEYKCKVSNKALPAPIEKTISKAKGQPREPQVCTLPPSREEMTKNQVSLSCAVKGFYPSDIAVEWESNGQPENNYKTTPPVLDSDGSFFLVSKLTVDKSRWQQGNVFSCSVMHEALHNHYTQKSLSLSPGK
chain: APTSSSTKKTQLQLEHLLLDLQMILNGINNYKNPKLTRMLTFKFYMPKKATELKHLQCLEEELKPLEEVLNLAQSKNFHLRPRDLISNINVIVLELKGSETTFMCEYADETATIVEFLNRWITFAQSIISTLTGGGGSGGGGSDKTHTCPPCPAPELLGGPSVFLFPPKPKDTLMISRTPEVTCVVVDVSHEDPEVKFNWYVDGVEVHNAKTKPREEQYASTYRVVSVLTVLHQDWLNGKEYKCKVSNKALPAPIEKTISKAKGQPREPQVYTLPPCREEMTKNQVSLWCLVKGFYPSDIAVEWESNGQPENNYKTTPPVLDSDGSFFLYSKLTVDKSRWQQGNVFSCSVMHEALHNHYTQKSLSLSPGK
light: DIQMTQSPSFLSASVGDRVTITCKASQNVADRVVWHQQKPGKAPKALIYSSSHRYKGVPSRFSGSGSGTEFTLTISSLQPEDFATYFCQQFKSYPLTFGQGTKLEIKRTVAAPSVFIFPPSDEQLKSGTASVVCLLNNFYPREAKVQWKVDNALQSGNSQESVTEQDSKDSTYSLSSTLTLSKADYEKHKVYACEVTHQGLSSPVTKSFNRGEC
notes: also called TCRVβ/IL-2 (C125A) bispecific; IL2xTCRVβ
One may read the Kd as the equilibrium constant for the complex coming apart. A lower Kd goes with tighter binding. One may read the EC50 as the concentration that produces a half-maximal response. Lower therefore signals higher potency in that assay. As to B1, the equilibrium dissociation constant (Kd) came out at 4.9 nM with cynomolgus Vβ6 TCR; 1.7 nM in the assay with Human Vβ6 TCR; 48 nM in the assay with cynomolgus IL2Ra; 45 nM with Human IL2Ra; 3.3 nM in assay [2]; 3.8 nM in the assay with human IL2R beta-gamma. The same molecule registered a Kd in assay [4] of 0.1 nM. Also, in the assay with Vβ6 TCR on human T cells [1], the “EC50 of proliferation of Vβ6 T cells as a proportion of total CD4+ T cells (human PBMCs, 5 days)” value worked out at 12 nM. Besides, in the assay with Vβ6 TCR on human T cells [1], the “EC50 of proliferation of Vβ6 T cells as a proportion of total CD8+ T cells (human PBMCs, 5 days)” value was 6 nM. The EC50 with Vβ6 TCR on human T cells [3] turned out to be 0.5 nM.
